In the Human Domainome abundance scans (Beltran et al. 2025):
± gives the uncertainty stated by the source.

B1: GAS2-like protein 1, residues 209 to 276; numbered along this chain, Q99501 (parent)
chain: DELVREILGRCTCPDQFPMIKVSEGKYRVGDSSLLIFVRVLRSHVMVRVGGGWDTLEHYLDKHDPCRC

Variants of: B1
Test: abundance fitness (aPCA) (normalised: wild type 0, dead -1); higher = more abundant; growth selection in yeast, the domain comes from the species named
Conditions: Homo sapiens

Variant	abundance fitness
R5S	0.093 ± 0.053
G30V	-0.646 ± 0.08
E24P	-0.246 ± 0.12
E24C	-0.588 ± 0.25
E24Q	0.041 ± 0.15
T55A	-0.545 ± 0.074
T55K	-0.489 ± 0.14
T55Y	-0.033 ± 0.092
T55W	-0.801 ± 0.14
T55H	-0.399 ± 0.15
T55I	-0.817 ± 0.1
T55G	-0.815 ± 0.11
D61W	-0.305 ± 0.049
D61I	-0.3 ± 0.066
S32V	-0.596 ± 0.073
V22P	-0.971 ± 0.29
V22H	-0.26 ± 0.12
V22A	-0.311 ± 0.34
V22R	-0.428 ± 0.073
V22D	-0.327 ± 0.28
V49L	-0.319 ± 0.046
V49A	0.007 ± 0.041
V49F	-0.337 ± 0.074
P18Q	0.011 ± 0.072

Variant	abundance fitness
P18K	0.026 ± 0.063
P18S	-0.043 ± 0.045
P18H	-0.222 ± 0.09
E57S	-0.388 ± 0.052
H44A	-0.001 ± 0.071
V45F	-0.927 ± 0.23
V45M	-0.505 ± 0.13
V45C	-0.227 ± 0.092
L60S	-0.928 ± 0.11
L60Y	-0.822 ± 0.33
L60R	-0.889 ± 0.13
F37L	0.141 ± 0.037
F37K	0.134 ± 0.051
F37E	0.383 ± 0.049
F37Q	0.248 ± 0.061
F37A	0.106 ± 0.042
K26Q	0.237 ± 0.12
Q16P	0.131 ± 0.047
Q16A	-0.224 ± 0.053
Q16F	-0.623 ± 0.16
Y59A	-0.927 ± 0.13
V47Y	-0.386 ± 0.12
V47E	-0.99 ± 0.2
V47S	-1.08 ± 0.12

Variant	abundance fitness
V40N	0.029 ± 0.1
V40P	-0.44 ± 0.11
I20Q	0.026 ± 0.1
M46G	-0.666 ± 0.1
M46R	-0.541 ± 0.093
M46Q	-0.093 ± 0.093
D15R	0.018 ± 0.038
I7G	-0.763 ± 0.082
I7P	-1.04 ± 0.17
I7E	-0.128 ± 0.056
I7T	-0.38 ± 0.078
I7V	-0.219 ± 0.049
D64S	-1.02 ± 0.21
D64L	-0.812 ± 0.088
D64G	-0.792 ± 0.071
D64E	-0.668 ± 0.12
S33T	-0.182 ± 0.058
S33Y	-0.413 ± 0.065
P65D	-0.757 ± 0.31
P65Q	-0.771 ± 0.17
P65V	-0.904 ± 0.15
P65E	-0.688 ± 0.16
C13H	-0.874 ± 0.28
C13M	-0.786 ± 0.15

Variant	abundance fitness
C13Y	-0.744 ± 0.14
I36W	-0.705 ± 0.26
I36Y	-0.444 ± 0.15
I36V	-0.017 ± 0.099
H58W	-0.752 ± 0.13
H58R	-0.116 ± 0.043
H58K	-0.138 ± 0.051
E2N	0.073 ± 0.076
G25I	-1.07 ± 0.18
G25P	-0.809 ± 0.19
G25V	-0.961 ± 0.18
G25N	-0.116 ± 0.11
G25D	-0.07 ± 0.082
G25R	-0.328 ± 0.048
G25S	-0.158 ± 0.041
V38P	-0.3 ± 0.12
V38A	-0.465 ± 0.1
V38N	-0.737 ± 0.25
V38S	-0.626 ± 0.15
M19A	-0.539 ± 0.061
R39F	-0.172 ± 0.09
R39S	-0.144 ± 0.045
R39Y	-0.333 ± 0.078
S23T	-0.036 ± 0.057

Variant	abundance fitness
S23G	0.013 ± 0.045
S23W	-0.53 ± 0.11
S23A	-0.023 ± 0.048
T12L	-0.664 ± 0.058
T12M	-0.419 ± 0.098
T12H	-0.542 ± 0.13
T12N	-0.355 ± 0.11
C68L	0.132 ± 0.05
C68P	-0.331 ± 0.12
C68S	0.118 ± 0.078
C68G	0.176 ± 0.12
K21I	-0.981 ± 0.27
P14W	-0.816 ± 0.12
P14G	-0.502 ± 0.079
P14K	0.016 ± 0.056
R28G	-0.944 ± 0.14
R28K	-0.07 ± 0.044
G50N	0.007 ± 0.11
G50F	-0.896 ± 0.23
G50A	-0.08 ± 0.086
L34V	0.103 ± 0.047
L8P	-0.819 ± 0.24
L8A	-0.352 ± 0.054
L8N	-0.793 ± 0.13

Variant	abundance fitness
L8R	-0.754 ± 0.063
V4H	-0.855 ± 0.2
V4S	-0.836 ± 0.12
G52A	0.065 ± 0.034
G52V	0.089 ± 0.033
D31P	-0.066 ± 0.09
D31G	-0.066 ± 0.04
L3P	-0.711 ± 0.11
L3D	-0.559 ± 0.15
L3W	-0.643 ± 0.11
L3N	-0.675 ± 0.15
L3R	0.01 ± 0.046
D1A	-0.623 ± 0.28
D1T	-0.707 ± 0.15
D1P	-0.517 ± 0.48
D1V	-0.653 ± 0.12
D1F	-0.55 ± 0.4
L41N	-0.068 ± 0.08
L41C	-0.09 ± 0.059
L41H	0.175 ± 0.068
L41M	0.098 ± 0.062
E6P	-0.864 ± 0.1
G9K	-0.12 ± 0.067
G9M	-0.127 ± 0.065

Variant	abundance fitness
G9N	-0.076 ± 0.07
G9E	0.03 ± 0.063
H63C	-0.377 ± 0.12
H63W	-0.233 ± 0.09
H63R	-0.162 ± 0.046
R42P	-0.424 ± 0.2
R42M	-0.1 ± 0.088
L56H	-0.959 ± 0.21
L56C	-0.916 ± 0.28
L56Q	-1.13 ± 0.39
L56I	-0.485 ± 0.13
R67W	-1.02 ± 0.25
R67V	-0.975 ± 0.14
R67L	-0.706 ± 0.09
R67E	-0.847 ± 0.29
R67S	-0.789 ± 0.09
F17A	-0.955 ± 0.15
G51E	0.229 ± 0.065
G51M	-0.15 ± 0.057
V29Y	-0.489 ± 0.18
V29I	0.129 ± 0.047
R10G	-0.432 ± 0.077
R10W	-0.728 ± 0.11
